How the values were obtained:
[1] = DiFMUP phosphatase assay, crude secreted fractions; conditions: glycan lost; control: wild-type r-hPAP
[2] = DiFMUP assay with 70 mM L-(+)-tartrate; conditions: glycan lost; control: wild-type r-hPAP
[3] = anti-hPAP western blot, lysates and secreted fractions; conditions: glycan lost; control: wild-type r-hPAP
[4] = DiFMUP phosphatase assay, crude cell lysates; conditions: glycan lost; control: wild-type r-hPAP
[5] = DiFMUP phosphatase assay after 24 h PNGase F; conditions: glycan lost; control: untreated r-hPAP

Protein | other: inhibition by L-(+)-tartrate [2] | expression_or_secretion [3] | further results
secretory human prostatic acid phosphatase (hPAP, S-PAP): N62Q (protein) parent chain: MRAAPLLLARAASLSLGFLFLLFFWLDRSVLAKELKFVTLVFRHGDRSPIDTFPTDPIKESSWPQGFGQLTQLGMEQHYELGEYIRKRYRKFLNESYKHEQVYIRSTDVDRTLMSAMTNLAALFPPEGVSIWNPILLWQPIPVHTVPLSEDQLLYLPFRNCPRFQELESETLKSEEFQKRLHPYKDFIATLGKLSGLHGQDLFGIWSKVYDPLYCESVHNFTLPSWATEDTMTKLRELSELSLLSLYGIHKQKEKSRLQGGVLVNEILNHMKRATQIPSYKKLIMYSAHDTTVSGLQMALDVYNGLLPPYASCHLTELYFEKGEYFVEMYYRNETQHEPYPLMLPGCSPSCPLERFAELVGPVIPQDWSTECMTTNSHQGTEDSTD | no change | no change | enzymatic_activity, other: RFU/µg total protein at 10 min [1]: decreases, 67.0 (2.78) vs 109.5 (1.44); enzymatic_activity, other: RFU/µg total protein at 10 min [4]: decreases, 7.8 (0.29) vs 12.2 (0.28)
secretory human prostatic acid phosphatase (hPAP, S-PAP): N62Q, N188Q (protein) parent chain: MRAAPLLLARAASLSLGFLFLLFFWLDRSVLAKELKFVTLVFRHGDRSPIDTFPTDPIKESSWPQGFGQLTQLGMEQHYELGEYIRKRYRKFLNESYKHEQVYIRSTDVDRTLMSAMTNLAALFPPEGVSIWNPILLWQPIPVHTVPLSEDQLLYLPFRNCPRFQELESETLKSEEFQKRLHPYKDFIATLGKLSGLHGQDLFGIWSKVYDPLYCESVHNFTLPSWATEDTMTKLRELSELSLLSLYGIHKQKEKSRLQGGVLVNEILNHMKRATQIPSYKKLIMYSAHDTTVSGLQMALDVYNGLLPPYASCHLTELYFEKGEYFVEMYYRNETQHEPYPLMLPGCSPSCPLERFAELVGPVIPQDWSTECMTTNSHQGTEDSTD | no change | decreases | 
secretory human prostatic acid phosphatase (hPAP, S-PAP): N62Q, N301Q (protein) parent chain: MRAAPLLLARAASLSLGFLFLLFFWLDRSVLAKELKFVTLVFRHGDRSPIDTFPTDPIKESSWPQGFGQLTQLGMEQHYELGEYIRKRYRKFLNESYKHEQVYIRSTDVDRTLMSAMTNLAALFPPEGVSIWNPILLWQPIPVHTVPLSEDQLLYLPFRNCPRFQELESETLKSEEFQKRLHPYKDFIATLGKLSGLHGQDLFGIWSKVYDPLYCESVHNFTLPSWATEDTMTKLRELSELSLLSLYGIHKQKEKSRLQGGVLVNEILNHMKRATQIPSYKKLIMYSAHDTTVSGLQMALDVYNGLLPPYASCHLTELYFEKGEYFVEMYYRNETQHEPYPLMLPGCSPSCPLERFAELVGPVIPQDWSTECMTTNSHQGTEDSTD |  | abolishes | 
secretory human prostatic acid phosphatase (hPAP, S-PAP): PNGase F (protein) parent chain: MRAAPLLLARAASLSLGFLFLLFFWLDRSVLAKELKFVTLVFRHGDRSPIDTFPTDPIKESSWPQGFGQLTQLGMEQHYELGEYIRKRYRKFLNESYKHEQVYIRSTDVDRTLMSAMTNLAALFPPEGVSIWNPILLWQPIPVHTVPLSEDQLLYLPFRNCPRFQELESETLKSEEFQKRLHPYKDFIATLGKLSGLHGQDLFGIWSKVYDPLYCESVHNFTLPSWATEDTMTKLRELSELSLLSLYGIHKQKEKSRLQGGVLVNEILNHMKRATQIPSYKKLIMYSAHDTTVSGLQMALDVYNGLLPPYASCHLTELYFEKGEYFVEMYYRNETQHEPYPLMLPGCSPSCPLERFAELVGPVIPQDWSTECMTTNSHQGTEDSTD |  |  | enzymatic_activity [5]: no change
secretory human prostatic acid phosphatase (hPAP, S-PAP): N188Q, N301Q (protein) parent chain: MRAAPLLLARAASLSLGFLFLLFFWLDRSVLAKELKFVTLVFRHGDRSPIDTFPTDPIKESSWPQGFGQLTQLGMEQHYELGEYIRKRYRKFLNESYKHEQVYIRSTDVDRTLMSAMTNLAALFPPEGVSIWNPILLWQPIPVHTVPLSEDQLLYLPFRNCPRFQELESETLKSEEFQKRLHPYKDFIATLGKLSGLHGQDLFGIWSKVYDPLYCESVHNFTLPSWATEDTMTKLRELSELSLLSLYGIHKQKEKSRLQGGVLVNEILNHMKRATQIPSYKKLIMYSAHDTTVSGLQMALDVYNGLLPPYASCHLTELYFEKGEYFVEMYYRNETQHEPYPLMLPGCSPSCPLERFAELVGPVIPQDWSTECMTTNSHQGTEDSTD |  | abolishes | 
secretory human prostatic acid phosphatase (hPAP, S-PAP): N301Q (protein) parent chain: MRAAPLLLARAASLSLGFLFLLFFWLDRSVLAKELKFVTLVFRHGDRSPIDTFPTDPIKESSWPQGFGQLTQLGMEQHYELGEYIRKRYRKFLNESYKHEQVYIRSTDVDRTLMSAMTNLAALFPPEGVSIWNPILLWQPIPVHTVPLSEDQLLYLPFRNCPRFQELESETLKSEEFQKRLHPYKDFIATLGKLSGLHGQDLFGIWSKVYDPLYCESVHNFTLPSWATEDTMTKLRELSELSLLSLYGIHKQKEKSRLQGGVLVNEILNHMKRATQIPSYKKLIMYSAHDTTVSGLQMALDVYNGLLPPYASCHLTELYFEKGEYFVEMYYRNETQHEPYPLMLPGCSPSCPLERFAELVGPVIPQDWSTECMTTNSHQGTEDSTD |  | abolishes | 
secretory human prostatic acid phosphatase (hPAP, S-PAP): N188Q (protein) parent chain: MRAAPLLLARAASLSLGFLFLLFFWLDRSVLAKELKFVTLVFRHGDRSPIDTFPTDPIKESSWPQGFGQLTQLGMEQHYELGEYIRKRYRKFLNESYKHEQVYIRSTDVDRTLMSAMTNLAALFPPEGVSIWNPILLWQPIPVHTVPLSEDQLLYLPFRNCPRFQELESETLKSEEFQKRLHPYKDFIATLGKLSGLHGQDLFGIWSKVYDPLYCESVHNFTLPSWATEDTMTKLRELSELSLLSLYGIHKQKEKSRLQGGVLVNEILNHMKRATQIPSYKKLIMYSAHDTTVSGLQMALDVYNGLLPPYASCHLTELYFEKGEYFVEMYYRNETQHEPYPLMLPGCSPSCPLERFAELVGPVIPQDWSTECMTTNSHQGTEDSTD | no change | decreases | 
secretory human prostatic acid phosphatase (hPAP, S-PAP): N62Q, N188Q, N301Q (protein) parent chain: MRAAPLLLARAASLSLGFLFLLFFWLDRSVLAKELKFVTLVFRHGDRSPIDTFPTDPIKESSWPQGFGQLTQLGMEQHYELGEYIRKRYRKFLNESYKHEQVYIRSTDVDRTLMSAMTNLAALFPPEGVSIWNPILLWQPIPVHTVPLSEDQLLYLPFRNCPRFQELESETLKSEEFQKRLHPYKDFIATLGKLSGLHGQDLFGIWSKVYDPLYCESVHNFTLPSWATEDTMTKLRELSELSLLSLYGIHKQKEKSRLQGGVLVNEILNHMKRATQIPSYKKLIMYSAHDTTVSGLQMALDVYNGLLPPYASCHLTELYFEKGEYFVEMYYRNETQHEPYPLMLPGCSPSCPLERFAELVGPVIPQDWSTECMTTNSHQGTEDSTD |  | abolishes | 
